Assay results: publication PMC7954794, “Protein context shapes the specificity of SH3 domain-mediated interactions in vivo” (Nature Communications, 2021)

Test system: Abp1 PPIs
Experiment: DHFR-PCA of Abp1 SH3-swapped baits (Fig. 2B-D, S2C, S2F);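 as to Protein-protein interaction distance between Abp1 SH3-swapped baits, to ABP1: Euclidean distance between DHFR-PCA score profiles of the baits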;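 as to Protein-protein interaction distance between Abp1 SH3-swapped baits, to BEM1-2: Euclidean distance between DHFR-PCA score profiles of the baits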;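 as to Protein-protein interaction distance between Abp1 SH3-swapped baits, to BOI1: Euclidean distance between DHFR-PCA score profiles of the baits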;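 as to Protein-protein interaction distance between Abp1 SH3-swapped baits, to BZZ1-1: Euclidean distance between DHFR-PCA score profiles of the baits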
Assay type: cell-based, Saccharomyces cerevisiae
Details: for Protein-protein interaction distance between Abp1 SH3-swapped baits, to ABP1: Abp1 bait with swapped SH3, distance to bait with ABP1 SH3; for Protein-protein interaction distance between Abp1 SH3-swapped baits, to BBC1: distance to Abp1 bait with BBC1 SH3; for Protein-protein interaction distance between Abp1 SH3-swapped baits, to BEM1-1: distance to Abp1 bait with BEM1-1 SH3; for Protein-protein interaction distance between Abp1 SH3-swapped baits, to BEM1-2: distance to Abp1 bait with BEM1-2 SH3; for Protein-protein interaction distance between Abp1 SH3-swapped baits, to BOI1: distance to Abp1 bait with BOI1 SH3; for Protein-protein interaction distance between Abp1 SH3-swapped baits, to BOI2: distance to Abp1 bait with BOI2 SH3; for Protein-protein interaction distance between Abp1 SH3-swapped baits, to BUD14: distance to Abp1 bait with BUD14 SH3; for Protein-protein interaction distance between Abp1 SH3-swapped baits, to BZZ1-1: distance to Abp1 bait with BZZ1-1 SH3; for Protein-protein interaction distance between Abp1 SH3-swapped baits, to BZZ1-2: distance to Abp1 bait with BZZ1-2 SH3; for Protein-protein interaction distance between Abp1 SH3-swapped baits, to CDC25: distance to Abp1 bait with CDC25 SH3; for Protein-protein interaction distance between Abp1 SH3-swapped baits, to CTTN: distance to Abp1 bait with CTTN SH3; for Protein-protein interaction distance between Abp1 SH3-swapped baits, to CYK3: distance to Abp1 bait with CYK3 SH3; for Protein-protein interaction distance between Abp1 SH3-swapped baits, to DBNL: distance to Abp1 bait with DBNL SH3; for Protein-protein interaction distance between Abp1 SH3-swapped baits, to FUS1: distance to Abp1 bait with FUS1 SH3; for Protein-protein interaction distance between Abp1 SH3-swapped baits, to HCLS1: distance to Abp1 bait with HCLS1 SH3; for Protein-protein interaction distance between Abp1 SH3-swapped baits, to HOF1: distance to Abp1 bait with HOF1 SH3; for Protein-protein interaction distance between Abp1 SH3-swapped baits, to HSE1: distance to Abp1 bait with HSE1 SH3; for Protein-protein interaction distance between Abp1 SH3-swapped baits, to LSB1: distance to Abp1 bait with LSB1 SH3; for Protein-protein interaction distance between Abp1 SH3-swapped baits, to LSB3: distance to Abp1 bait with LSB3 SH3; for Protein-protein interaction distance between Abp1 SH3-swapped baits, to MYO3: distance to Abp1 bait with MYO3 SH3; for Protein-protein interaction distance between Abp1 SH3-swapped baits, to MYO5: distance to Abp1 bait with MYO5 SH3; for Protein-protein interaction distance between Abp1 SH3-swapped baits, to NBP2: distance to Abp1 bait with NBP2 SH3; for Protein-protein interaction distance between Abp1 SH3-swapped baits, to PIN3: distance to Abp1 bait with PIN3 SH3; for Protein-protein interaction distance between Abp1 SH3-swapped baits, to RVS167: distance to Abp1 bait with RVS167 SH3; for Protein-protein interaction distance between Abp1 SH3-swapped baits, to SDC25: distance to Abp1 bait with SDC25 SH3; for Protein-protein interaction distance between Abp1 SH3-swapped baits, to SHO1: distance to Abp1 bait with SHO1 SH3; for Protein-protein interaction distance between Abp1 SH3-swapped baits, to SLA1-1: distance to Abp1 bait with SLA1-1 SH3; for Protein-protein interaction distance between Abp1 SH3-swapped baits, to SLA1-2: distance to Abp1 bait with SLA1-2 SH3; for Protein-protein interaction distance between Abp1 SH3-swapped baits, to SLA1-3: distance to Abp1 bait with SLA1-3 SH3; for Protein-protein interaction distance between Abp1 SH3-swapped baits, to YSC84: distance to Abp1 bait with YSC84 SH3; for PPIs gained by Abp1 - SH3-dependent PPIs gained by Abp1 / SH3-dependent PPIs - SH3-dependent PPIs gained by Abp1 / SH3-dependent PPIs gained by Abp1: number of PPIs, Abp1 SH3-swapped with the listed SH3, Fig2D,S2F; for PPIs gained by Abp1 - SH3-dependent PPIs gained by Abp1 / SH3-dependent PPIs - SH3-dependent PPIs gained by Abp1: difference; for SH3-dependent PPIs gained by Abp1: DHFR-PCA
Method in brief: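 Interactions were scored by DHFR protein-fragment complementation. DHFR F[1,2]-tagged Abp1 strains, whose SH3 was swapped for yeast or human ortholog domains, were crossed on YPD at 30 °C for 48 h with a 1536-format array of 575 prey-DHFR F[3] strains and 40 negatives, giving four replicates per pair. PCA selection lasted 4 days after double diploid selection.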

B1: LSB3 (protein)
chain: MGINNPIPRSLKSETKKAAKILASFVKPNQVFGADQVIPPDVLKRAKGLAIITILKAGFLFSGRAGSGVIVARLKDGTWSAPSAIAMAGAGAGGMVGIELTDFVFILNTQDAVKSFSEFGTITLGGNVSVSAGPLGRSAEAAASASAGGVAAVFAYSKSKGLFAGVSVEGSAIIERREANRKFYGDNCTAKMILSGRIRPPPAVDPLFRVLESRAFNYRPSNGGRGSFDDDEDDYYDDDDYYNDIPSSFSSTDASSTRPNTRSTRRRAQSGSRYTFDDDDDDDDYGTGYSRNSRLAPTNSGGSGGKLDDPSGASSYYASHRRSGTAQSRARSSRNRWADDEYDDYDDDYESGYRRGNGRDRTKDREVDDLSNRFSKSRISSASTPQTSQGRFTAPTSPSTSSPKAVALYSFAGEESGDLPFRKGDVITILKKSDSQNDWWTGRVNGREGIFPANYVELV
modifications: left off: DHFR F[3], C-terminal, kept
Sheet Fig2C
  Protein-protein interaction distance between Abp1 SH3-swapped baits, to ABP1: 13.53
  Protein-protein interaction distance between Abp1 SH3-swapped baits, to BBC1: 13.63
  Protein-protein interaction distance between Abp1 SH3-swapped baits, to BEM1-1: 19.15
  Protein-protein interaction distance between Abp1 SH3-swapped baits, to BEM1-2: 36.03
  Protein-protein interaction distance between Abp1 SH3-swapped baits, to BOI1: 16.12
  Protein-protein interaction distance between Abp1 SH3-swapped baits, to BOI2: 19.6
  Protein-protein interaction distance between Abp1 SH3-swapped baits, to BUD14: 22.11
  Protein-protein interaction distance between Abp1 SH3-swapped baits, to BZZ1-1: 10.79
  Protein-protein interaction distance between Abp1 SH3-swapped baits, to BZZ1-2: 16.06
  Protein-protein interaction distance between Abp1 SH3-swapped baits, to CDC25: 30.47
  Protein-protein interaction distance between Abp1 SH3-swapped baits, to CTTN: 16.7
  Protein-protein interaction distance between Abp1 SH3-swapped baits, to CYK3: 31.13
  Protein-protein interaction distance between Abp1 SH3-swapped baits, to DBNL: 10.88
  Protein-protein interaction distance between Abp1 SH3-swapped baits, to FUS1: 23.48
  Protein-protein interaction distance between Abp1 SH3-swapped baits, to HCLS1: 10.8
  Protein-protein interaction distance between Abp1 SH3-swapped baits, to HOF1: 34.67
  Protein-protein interaction distance between Abp1 SH3-swapped baits, to HSE1: 12.29
  Protein-protein interaction distance between Abp1 SH3-swapped baits, to LSB1: 3.731
  Protein-protein interaction distance between Abp1 SH3-swapped baits, to LSB3: 0.00
  Protein-protein interaction distance between Abp1 SH3-swapped baits, to MYO3: 9.625
  Protein-protein interaction distance between Abp1 SH3-swapped baits, to MYO5: 8.063
  Protein-protein interaction distance between Abp1 SH3-swapped baits, to NBP2: 21.33
  Protein-protein interaction distance between Abp1 SH3-swapped baits, to PIN3: 5.817
  Protein-protein interaction distance between Abp1 SH3-swapped baits, to RVS167: 7.852
  Protein-protein interaction distance between Abp1 SH3-swapped baits, to SDC25: 36.63
  Protein-protein interaction distance between Abp1 SH3-swapped baits, to SHO1: 11.76
  Protein-protein interaction distance between Abp1 SH3-swapped baits, to SLA1-1: 32.92
  Protein-protein interaction distance between Abp1 SH3-swapped baits, to SLA1-2: 23.82
  Protein-protein interaction distance between Abp1 SH3-swapped baits, to SLA1-3: 5.438
  Protein-protein interaction distance between Abp1 SH3-swapped baits, to YSC84: 3.425
Distance to Abp1 bait with PEX13 SH3, sheet Fig2C
  Protein-protein interaction distance between Abp1 SH3-swapped baits, to PEX13: 7.361
  PPIs gained by Abp1 - SH3-dependent PPIs gained by Abp1: 37
  SH3-dependent PPIs - SH3-dependent PPIs gained by Abp1: 15
  SH3-dependent PPIs gained by Abp1: 4

B2: LSB1 (protein, UniProt P53281 2-241, looked up)
LAS seventeen-binding protein …: SASLVNRSLKNIRNELEFLKESNVISGDIFELINSKLPEKWDGNQRSPQNADTEEYVEALYDFEAQQDGDLSLKTGDKIQVLEKISPDWYRGKSNNKIGIFPANYVKPAFTRSASPKSAEAASSSTVSRPSVPPPSYEPAASQYPSQQVSAPYAPPAGYMQAPPPQQQQAPLPYPPPFTNYYQQPQQQYAPPSQQAPVEAQPQQSSGASSAFKSFGSKLGNAAIFGAGSAIGSDIVNSIF
Sheet Fig2C
  Protein-protein interaction distance between Abp1 SH3-swapped baits, to ABP1: 13.24
  Protein-protein interaction distance between Abp1 SH3-swapped baits, to BBC1: 13.47
  Protein-protein interaction distance between Abp1 SH3-swapped baits, to BEM1-1: 19.25
  Protein-protein interaction distance between Abp1 SH3-swapped baits, to BEM1-2: 36.52
  Protein-protein interaction distance between Abp1 SH3-swapped baits, to BOI1: 16.11
  Protein-protein interaction distance between Abp1 SH3-swapped baits, to BOI2: 19.63
  Protein-protein interaction distance between Abp1 SH3-swapped baits, to BUD14: 22.3
  Protein-protein interaction distance between Abp1 SH3-swapped baits, to BZZ1-1: 10.43
  Protein-protein interaction distance between Abp1 SH3-swapped baits, to BZZ1-2: 15.96
  Protein-protein interaction distance between Abp1 SH3-swapped baits, to CDC25: 30.85
  Protein-protein interaction distance between Abp1 SH3-swapped baits, to CTTN: 16.72
  Protein-protein interaction distance between Abp1 SH3-swapped baits, to CYK3: 31.53
  Protein-protein interaction distance between Abp1 SH3-swapped baits, to DBNL: 10.77
  Protein-protein interaction distance between Abp1 SH3-swapped baits, to FUS1: 23.45
  Protein-protein interaction distance between Abp1 SH3-swapped baits, to HCLS1: 10.61
  Protein-protein interaction distance between Abp1 SH3-swapped baits, to HOF1: 35.15
  Protein-protein interaction distance between Abp1 SH3-swapped baits, to HSE1: 12.02
  Protein-protein interaction distance between Abp1 SH3-swapped baits, to LSB1: 0.00
  Protein-protein interaction distance between Abp1 SH3-swapped baits, to LSB3: 3.731
  Protein-protein interaction distance between Abp1 SH3-swapped baits, to MYO3: 9.135
  Protein-protein interaction distance between Abp1 SH3-swapped baits, to MYO5: 7.822
  Protein-protein interaction distance between Abp1 SH3-swapped baits, to NBP2: 21.49
  Protein-protein interaction distance between Abp1 SH3-swapped baits, to PIN3: 5.513
  Protein-protein interaction distance between Abp1 SH3-swapped baits, to RVS167: 7.392
  Protein-protein interaction distance between Abp1 SH3-swapped baits, to SDC25: 37.12
  Protein-protein interaction distance between Abp1 SH3-swapped baits, to SHO1: 11.57
  Protein-protein interaction distance between Abp1 SH3-swapped baits, to SLA1-1: 33.34
  Protein-protein interaction distance between Abp1 SH3-swapped baits, to SLA1-2: 24.03
  Protein-protein interaction distance between Abp1 SH3-swapped baits, to SLA1-3: 5.759
  Protein-protein interaction distance between Abp1 SH3-swapped baits, to YSC84: 3.911
  PPIs gained by Abp1 - SH3-dependent PPIs gained by Abp1: 41
  SH3-dependent PPIs - SH3-dependent PPIs gained by Abp1: 8
  SH3-dependent PPIs gained by Abp1: 0
